Assay results published in patent publication US20250361268A1, “NOVEL ANTI-INFLAMMATORY PEPTIDE AND USE THEREOF” (NOVACELL TECHNOLOGY INC., priority 2022, published 2025).

Tests used:
[1] = molecular target: T1, formyl peptide receptor 2 (FPR2) (UniProt P25090 1-351, limits assumed); assay: cell-based or functional assay
T1 sequence (looked up): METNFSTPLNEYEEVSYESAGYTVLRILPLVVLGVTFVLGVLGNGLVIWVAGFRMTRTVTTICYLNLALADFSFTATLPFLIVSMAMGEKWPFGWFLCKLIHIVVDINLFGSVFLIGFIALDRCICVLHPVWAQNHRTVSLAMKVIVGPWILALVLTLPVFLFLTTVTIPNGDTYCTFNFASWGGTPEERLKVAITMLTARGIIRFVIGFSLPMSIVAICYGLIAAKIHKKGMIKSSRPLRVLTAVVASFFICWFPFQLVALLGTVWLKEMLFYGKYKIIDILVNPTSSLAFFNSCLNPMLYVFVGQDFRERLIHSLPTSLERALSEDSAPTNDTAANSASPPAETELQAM

FPR1 = molecular target: T2, FPR1 (UniProt P21462 1-350, limits assumed); assay: cell-based or functional assay
T2 sequence (looked up): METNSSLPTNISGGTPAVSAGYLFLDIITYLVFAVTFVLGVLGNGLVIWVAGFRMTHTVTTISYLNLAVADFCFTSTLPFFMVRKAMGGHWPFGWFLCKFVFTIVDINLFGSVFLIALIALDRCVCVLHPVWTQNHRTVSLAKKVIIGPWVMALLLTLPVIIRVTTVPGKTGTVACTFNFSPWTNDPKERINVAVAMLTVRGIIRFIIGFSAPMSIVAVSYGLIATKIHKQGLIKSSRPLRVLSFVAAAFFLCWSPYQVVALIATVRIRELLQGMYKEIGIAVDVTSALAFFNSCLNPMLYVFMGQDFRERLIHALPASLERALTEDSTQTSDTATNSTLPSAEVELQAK

| Binder | EC50 for [Ca2+] [1] [nM] | EC50 for [Ca2+] (FPR1) [nM] |
| --- | --- | --- |
| RMRYKPM (HELM PEPTIDE1{R.M.R.Y.K.P.[dM].[am]}$$$$V2.0; N-terminus assumed; SMILES CSCC[C@H](NC(=O)[C@@H](N)CCCNC(=N)N)C(=O)N[C@@H](CCCNC(=N)N)C(=O)N[C@@H](Cc1ccc(O)cc1)C(=O)N[C@@H](CCCCN)C(=O)N1CCC[C@H]1C(=O)N[C@H](CCSC)C(N)=O) [peptide of SEQ ID NO 50] | < 10 | > 10000 |
| WRYYPM (HELM PEPTIDE1{[ac].W.R.Y.Y.P.[dM].[am]}$$$$V2.0; SMILES CSCC[C@@H](NC(=O)[C@@H]1CCCN1C(=O)[C@H](Cc1ccc(O)cc1)NC(=O)[C@H](Cc1ccc(O)cc1)NC(=O)[C@H](CCCNC(=N)N)NC(=O)[C@H](Cc1c[nH]c2ccccc12)NC(C)=O)C(N)=O) [peptide of SEQ ID NO 122] | < 10 | – |
| RWRYYPM (HELM PEPTIDE1{[ac].R.W.R.Y.Y.P.[dM].[am]}$$$$V2.0; SMILES CSCC[C@@H](NC(=O)[C@@H]1CCCN1C(=O)[C@H](Cc1ccc(O)cc1)NC(=O)[C@H](Cc1ccc(O)cc1)NC(=O)[C@H](CCCNC(=N)N)NC(=O)[C@H](Cc1c[nH]c2ccccc12)NC(=O)[C@H](CCCNC(=N)N)NC(C)=O)C(N)=O) [peptide of SEQ ID NO 121] | < 10 | – |
| HKYWPM (HELM PEPTIDE1{[ac].H.K.Y.W.P.[dM].[am]}$$$$V2.0; SMILES CSCC[C@@H](NC(=O)[C@@H]1CCCN1C(=O)[C@H](Cc1c[nH]c2ccccc12)NC(=O)[C@H](Cc1ccc(O)cc1)NC(=O)[C@H](CCCCN)NC(=O)[C@H](Cc1c[nH]cn1)NC(C)=O)C(N)=O) [peptide of SEQ ID NO 150] | < 10 | – |
| RMRYKVM (HELM PEPTIDE1{R.M.R.Y.K.V.[dM].[am]}$$$$V2.0; N-terminus assumed; SMILES CSCC[C@H](NC(=O)[C@@H](N)CCCNC(=N)N)C(=O)N[C@@H](CCCNC(=N)N)C(=O)N[C@@H](Cc1ccc(O)cc1)C(=O)N[C@@H](CCCCN)C(=O)N[C@H](C(=O)N[C@H](CCSC)C(N)=O)C(C)C) [peptide of SEQ ID NO 5] | < 10 | > 10000 |
| WRYWPM (HELM PEPTIDE1{W.R.Y.W.P.[dM].[am]}$$$$V2.0; N-terminus assumed; SMILES CSCC[C@@H](NC(=O)[C@@H]1CCCN1C(=O)[C@H](Cc1c[nH]c2ccccc12)NC(=O)[C@H](Cc1ccc(O)cc1)NC(=O)[C@H](CCCNC(=N)N)NC(=O)[C@@H](N)Cc1c[nH]c2ccccc12)C(N)=O) [peptide of SEQ ID NO 118] | < 10 | – |
| HMRYRVM (HELM PEPTIDE1{H.M.R.Y.R.V.[dM].[am]}$$$$V2.0; N-terminus assumed; SMILES CSCC[C@H](NC(=O)[C@@H](N)Cc1c[nH]cn1)C(=O)N[C@@H](CCCNC(=N)N)C(=O)N[C@@H](Cc1ccc(O)cc1)C(=O)N[C@@H](CCCNC(=N)N)C(=O)N[C@H](C(=O)N[C@H](CCSC)C(N)=O)C(C)C) [peptide of SEQ ID NO 31] | < 10 | – |
| RMRYYPM (HELM PEPTIDE1{[ac].R.M.R.Y.Y.P.[dM].[am]}$$$$V2.0; SMILES CSCC[C@H](NC(=O)[C@H](CCCNC(=N)N)NC(C)=O)C(=O)N[C@@H](CCCNC(=N)N)C(=O)N[C@@H](Cc1ccc(O)cc1)C(=O)N[C@@H](Cc1ccc(O)cc1)C(=O)N1CCC[C@H]1C(=O)N[C@H](CCSC)C(N)=O) [peptide of SEQ ID NO 119] | < 10 | – |
| RMRYKPM (HELM PEPTIDE1{[ac].R.M.R.Y.K.P.[dM].[am]}$$$$V2.0; SMILES CSCC[C@H](NC(=O)[C@H](CCCNC(=N)N)NC(C)=O)C(=O)N[C@@H](CCCNC(=N)N)C(=O)N[C@@H](Cc1ccc(O)cc1)C(=O)N[C@@H](CCCCN)C(=O)N1CCC[C@H]1C(=O)N[C@H](CCSC)C(N)=O) [peptide of SEQ ID NO 51] | < 10 | > 10000 |
| PMRYKYM (HELM PEPTIDE1{P.M.R.Y.K.Y.[dM].[am]}$$$$V2.0; N-terminus assumed; SMILES CSCC[C@H](NC(=O)[C@@H]1CCCN1)C(=O)N[C@@H](CCCNC(=N)N)C(=O)N[C@@H](Cc1ccc(O)cc1)C(=O)N[C@@H](CCCCN)C(=O)N[C@@H](Cc1ccc(O)cc1)C(=O)N[C@H](CCSC)C(N)=O) [peptide of SEQ ID NO 46] | < 10 | > 10000 |
| RMRYKPM (HELM PEPTIDE1{[CCCC(=O)[*:2]].R.M.R.Y.K.P.[dM].[am]}$$$$V2.0; SMILES CCCC(=O)N[C@@H](CCCNC(=N)N)C(=O)N[C@@H](CCSC)C(=O)N[C@@H](CCCNC(=N)N)C(=O)N[C@@H](Cc1ccc(O)cc1)C(=O)N[C@@H](CCCCN)C(=O)N1CCC[C@H]1C(=O)N[C@H](CCSC)C(N)=O) [peptide of SEQ ID NO 52] | < 10 | > 10000 |
| IKYKVM (HELM PEPTIDE1{[CCCCCCCC(=O)[*:2]].I.K.Y.K.V.[dM].[am]}$$$$V2.0; SMILES CCCCCCCC(=O)N[C@H](C(=O)N[C@@H](CCCCN)C(=O)N[C@@H](Cc1ccc(O)cc1)C(=O)N[C@@H](CCCCN)C(=O)N[C@H](C(=O)N[C@H](CCSC)C(N)=O)C(C)C)[C@@H](C)CC) [peptide of SEQ ID NO 137] | < 10 | – |
| PMRYKYM (HELM PEPTIDE1{[CCCC(=O)[*:2]].P.M.R.Y.K.Y.[dM].[am]}$$$$V2.0; SMILES CCCC(=O)N1CCC[C@H]1C(=O)N[C@@H](CCSC)C(=O)N[C@@H](CCCNC(=N)N)C(=O)N[C@@H](Cc1ccc(O)cc1)C(=O)N[C@@H](CCCCN)C(=O)N[C@@H](Cc1ccc(O)cc1)C(=O)N[C@H](CCSC)C(N)=O) [peptide of SEQ ID NO 47] | < 10 | > 10000 |
| RWRYKVM (HELM PEPTIDE1{R.W.R.Y.K.V.[dM].[am]}$$$$V2.0; N-terminus assumed; SMILES CSCC[C@@H](NC(=O)[C@@H](NC(=O)[C@H](CCCCN)NC(=O)[C@H](Cc1ccc(O)cc1)NC(=O)[C@H](CCCNC(=N)N)NC(=O)[C@H](Cc1c[nH]c2ccccc12)NC(=O)[C@@H](N)CCCNC(=N)N)C(C)C)C(N)=O) [peptide of SEQ ID NO 1] | < 10 | > 10000 |
| MRYKVM (HELM PEPTIDE1{[ac].M.R.Y.K.V.[dM].[am]}$$$$V2.0; SMILES CSCC[C@H](NC(C)=O)C(=O)N[C@@H](CCCNC(=N)N)C(=O)N[C@@H](Cc1ccc(O)cc1)C(=O)N[C@@H](CCCCN)C(=O)N[C@H](C(=O)N[C@H](CCSC)C(N)=O)C(C)C) [peptide of SEQ ID NO 14] | < 10 | – |
| KWKYKVM (HELM PEPTIDE1{[ac].K.W.K.Y.K.V.[dM].[am]}$$$$V2.0; SMILES CSCC[C@@H](NC(=O)[C@@H](NC(=O)[C@H](CCCCN)NC(=O)[C@H](Cc1ccc(O)cc1)NC(=O)[C@H](CCCCN)NC(=O)[C@H](Cc1c[nH]c2ccccc12)NC(=O)[C@H](CCCCN)NC(C)=O)C(C)C)C(N)=O) [peptide of SEQ ID NO 4] | < 10 | > 10000 |
| HMRYKYM (HELM PEPTIDE1{[CCCC(=O)[*:2]].H.M.R.Y.K.Y.[dM].[am]}$$$$V2.0; SMILES CCCC(=O)N[C@@H](Cc1c[nH]cn1)C(=O)N[C@@H](CCSC)C(=O)N[C@@H](CCCNC(=N)N)C(=O)N[C@@H](Cc1ccc(O)cc1)C(=O)N[C@@H](CCCCN)C(=O)N[C@@H](Cc1ccc(O)cc1)C(=O)N[C@H](CCSC)C(N)=O) [peptide of SEQ ID NO 45] | < 10 | > 10000 |
| HKYWPM (HELM PEPTIDE1{[CCCC(=O)[*:2]].H.K.Y.W.P.[dM].[am]}$$$$V2.0; SMILES CCCC(=O)N[C@@H](Cc1c[nH]cn1)C(=O)N[C@@H](CCCCN)C(=O)N[C@@H](Cc1ccc(O)cc1)C(=O)N[C@@H](Cc1c[nH]c2ccccc12)C(=O)N1CCC[C@H]1C(=O)N[C@H](CCSC)C(N)=O) [peptide of SEQ ID NO 151] | < 10 | – |
| MRYYPM (HELM PEPTIDE1{M.R.Y.Y.P.[dM].[am]}$$$$V2.0; N-terminus assumed; SMILES CSCC[C@H](N)C(=O)N[C@@H](CCCNC(=N)N)C(=O)N[C@@H](Cc1ccc(O)cc1)C(=O)N[C@@H](Cc1ccc(O)cc1)C(=O)N1CCC[C@H]1C(=O)N[C@H](CCSC)C(N)=O) [peptide of SEQ ID NO 120] | < 10 | – |
